Patent US20240124585A1 (SUTRO BIOPHARMA, published 2024)

Tests used:
EpCAM on NCI-H1975 cells [1] = target: T1, EpCAM on NCI-H1975 cells (UniProt P16422 24-314, limits assumed); assay: cell-based or functional assay
T1 sequence (looked up): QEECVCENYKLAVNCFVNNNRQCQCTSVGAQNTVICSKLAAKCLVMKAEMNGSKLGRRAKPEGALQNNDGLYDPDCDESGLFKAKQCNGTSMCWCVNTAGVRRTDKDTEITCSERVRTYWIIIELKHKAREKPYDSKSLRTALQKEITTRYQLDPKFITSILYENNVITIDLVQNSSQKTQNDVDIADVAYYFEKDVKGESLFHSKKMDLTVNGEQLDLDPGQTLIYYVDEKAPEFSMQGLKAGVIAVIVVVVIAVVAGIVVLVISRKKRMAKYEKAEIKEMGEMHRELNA

EpCAM on NCI-H1975 cells [2] = target: T1, EpCAM on NCI-H1975 cells; assay: cell-based or functional assay; remark: listed apart in the source

B1: aEpCAM × hOKT3 (MT110/AMG110) (bispecific antibody)
chain: MELVMTQSPSSLTVTAGEKVTMSCKSSQSLLNSGNQKNYLTWYQQKPGQPPKLLIYWASTRESGVPDRFTGSGSGTDFTLTISSVQAEDLAVYYCQNDYSYPLTFGAGTKLEIKGGGGSGGGGSGGGGSEVQLLEQSGAELVRPGTSVKISCKASGYAFTNYWLGWVKQRPGHGLEWIGDIFPGSGNIHYNEKFKGKATLTADKSSSTAYMQLSSLTFEDSAVYFCARLRNWDEPMDYWGQGTTVTVSSGGGGSDVQLVQSGAEVKKPGASVKVSCKASGYTFTRYTMHWVRQAPGQGLEWIGYINPSRGYTNYADSVKGRFTITTDKSTSTAYMELSSLRSEDTATYYCARYYDDHYCLDYWGQGTTVTVSSGEGTSTGSGGSGGSGGADDIVLTQSPATLSLSPGERATLSCRASQSVSYMNWYQQKPGKAPKRWIYDTSKVASGVPARFSGSGSGTDYSLTINSLEAEDAATYYCQQWSSNPLTFGGGTKVEIK
EpCAM on NCI-H1975 cells [1]
  Cell killing Donor #1 EC50 (pM): 8.2 pM
  Cell killing Donor #2 EC50 (pM): 4.1 pM
EpCAM on NCI-H1975 cells [2]
  T-cell mediated H1975 killing, EC50 (pM) Donor 1: 8 pM
  T-cell mediated H1975 killing, EC50 (pM) Donor 2: 4 pM
